Here are results for 1 molecule from publication PMC3518024.

The data set has as its target T1, AaNusB (Aquifex aeolicus, UniProt O66530 1-148).
T1 sequence: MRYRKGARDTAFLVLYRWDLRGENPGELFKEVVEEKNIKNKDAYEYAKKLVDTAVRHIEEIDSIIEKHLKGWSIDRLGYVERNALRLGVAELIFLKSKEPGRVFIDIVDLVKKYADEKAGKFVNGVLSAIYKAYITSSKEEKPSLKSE
Description: X-ray crystallography.

B1: AaBoxA 12-mer RNA self-duplex (supercoil-forming) (dsRNA)
RNA 1: GGCUCCUUGGCA
RNA 2: GGCUCCUUGGCA
For B1, the binding result is “binds”.
